Data: patent publication US9157088B2, “Transferases, epimerases, polynucleotides encoding these and uses thereof” (priority 2007, dated 2015)

B1: kiwifruit GDP-L-Galactose Guanyltransferase EST 319998 (Actinidia chinensis var. chinensis) (protein)
chain: MLKIKRVPTVVSNFQKDEAEDGARSGGGCGRNCLQKCCIQGAKLPLYAFKRVKEVVGEKGLLAVDDEEAPVAFLDSLLLGEWEDRVQRGLFRYDVTACETKVIPGEYGFIAQLNEGRHLKKRPTEFRVDKVLQPFDESKFNFTKVGQEEVLFQFEASDDNEVQFFPNAPVDVENSPSVVAINVSPIEYGHVLLIPRILECLPQRIDRESFLLALHMAAEAGNPYFRLGYNSLGAFATINHLHFQAYYLAVPFPIEKAPTRKITTLNGGVKISDLLNYPVRGLVFEGGNSLEDLSNAVSDSSICLQGNNIPYNVLISDSGKCIFLLPQCYAEKQALGEVSSDLLDTQVNPAVWEISGHMVLKRKEDYEEASEGNAWRLLAEVSLSEERFEEVKALIFEAISCADDRSGSTAENLLEEPDDNPQSRKVANDALNKGSHRGMVPGKQECLVQH

Assays:
[1] = biological target: T1, kiwifruit GDP-L-Galactose Guanyltransferase EST 319998 (Actinidia chinensis, UniProt A0A2R6QD99); experiment: Fixed time transferase assay, aliquots measured using coupling enzymes; type: biochemical; details: acceptor Mannose-1-P; 0.057 ug protein
Description: The assay for GDP-L-Galactose-1-Phosphate Guanyltransferase was run in 20 mM TrisCl, pH 8.0, GDP-L-Galactose, with 1 mM D-Mannose-1-Phosphate. GDP-L-Galactose was either used directly from the Glycoteam product (in which case high backgrounds were observed due to contaminating L-Galactose-1-Phosphate) or GDP-L-Galactose was generated using the epimerase. In the latter case, 0.21 mg of epimerase was incubated with GDP-D-Mannose in 20 mM Tris Cl pH 8 in a total volume of 400 μL (see Wolucka et al., 2001) for 30 minutes at 20 C and then used directly in the assay at a 1 to 20 dilution. Assays were either terminated after 10 minutes by heating to 100 C for three minutes, or directly coupled to the phosphatase and L-Galactose dehydrogenase to measure product formation during the assay. […] Assays for L-Galactose were linear with added L-Galactose-1-Phosphate over the range measured. […]
(§1) The applicants used two assays to characterise the enzyme, using two sources of the substrate GDP-L-Galactose. […] The applicants either measured the product formed by adding the coupling enzymes in the assay and measuring the time course of NADH formed, or by stopping the reaction after 10 minutes by boiling for 3 minutes and centrifuging. […]

[2] = biological target: T1, kiwifruit GDP-L-Galactose Guanyltransferase EST 319998; experiment: Fixed time transferase assay, aliquots measured by LCMS; type: biochemical; details: acceptor Mannose-1-P; 0.057 ug protein
Description: (§2) The assay for GDP-L-Galactose-1-Phosphate Guanyltransferase was run in 20 mM TrisCl, pH 8.0, GDP-L-Galactose, with 1 mM D-Mannose-1-Phosphate. GDP-L-Galactose was either used directly from the Glycoteam product (in which case high backgrounds were observed due to contaminating L-Galactose-1-Phosphate) or GDP-L-Galactose was generated using the epimerase. In the latter case, 0.21 mg of epimerase was incubated with GDP-D-Mannose in 20 mM Tris Cl pH 8 in a total volume of 400 μL (see Wolucka et al., 2001) for 30 minutes at 20 C and then used directly in the assay at a 1 to 20 dilution. Assays were either terminated after 10 minutes by heating to 100 C for three minutes, or directly coupled to the phosphatase and L-Galactose dehydrogenase to measure product formation during the assay. Heat terminated assays were cooled on ice, centrifuged to remove precipitated protein and L-Galactose assayed using the coupling enzymes described above (see also (Laing et al., 2004)). Assays for L-Galactose were linear with added L-Galactose-1-Phosphate over the range measured. Backgrounds were run using the empty vector control, which gave the same result as a boiled enzyme control.
As an alternative assay, LCMS was used to identify the forward reaction described above as well measure as the reverse pyrophosphorylase reaction where GTP (1 mM) and L-Galactose-1-Phosphate were incubated as above and the formation of GDP-L-Galactose followed. GDP-D-Mannose and GDP-L-Galactose were separated by HPLC before MS. LC-MS employed an LTQ linear ion trap mass spectrometer fitted with an ESI interface (ThermoQuest, Finnigan, San Jose, Calif., USA) coupled to an EttanTM MDLC (GE Healthcare Bio-Sciences). Separation of GDP-D-Mannose and GDP-L-Galactose was achieved using a Hypercarb column (Thermo Electron, USA), 100×2.1 mm maintained at 40 C. Solvents were (A) 50 mM ammonium acetate and (B) acetonitrile and the flow rate was 200 uL/min. The initial mobile phase, 5% B was held for 3 min, then ramped linearly to 20% B at 11 min, held for 5 min, then ramped linearly to 70% B at 19 min and held for 5 min before resetting to the original conditions. Retention times for GDP-D-Mannose and GDP-L-Galactose were 16.8 min and 17.5 min, respectively.
MS data was acquired in the negative mode using both a selective reaction monitoring (SRM) method SRM m/z 604>m/z 344, 362, 424, 442 and a selected ion monitoring (SIM) method SIM m/z 604. This SIM method monitors only the (M-H)— ion for GDP-D-Mannose and GDP-L-Galactose while the SRM method monitors the distinctive daughter ions formed by fragmenting the precursor ion (M-H)— for both compounds. Both methods maximise sensitivity by screening out any chemical noise from other compounds present. The ESI voltage, capillary temperature, sheath gas pressure, sweep gas and auxiliary gas were set at −10 V, 350° C., 25 psi, 3 psi, and 3 psi, respectively. Separation of D-Mannose-1-Phosphate and L-Galactose-1-Phosphate was achieved isocratically using a Hypercarb column (Thermo Electron, USA), 100×2.1 mm maintained at 40° C. Solvents were (A) 20 mM ammonium acetate and (B) methanol and the flow rate was 200 uL/min. Using a mobile phase of 2% B the retention times for D-Mannose-1-Phosphate and L-Galactose-1-Phosphate were 4.3 min and 4.9 min, respectively. MS data was acquired in the negative mode using both a selective reaction monitoring (SRM) method SRM m/z 259>m/z 79, 97 and a selected ion monitoring (SIM) method SIM m/z 259. […]

[3] = type: physicochemical
Description: GDP-L-Galactose (˜50% pure, contaminated with the breakdown products GDP and L-Galactose-1-Phosphate as shown by HPLC and LCMS) and L-Galactose-1-Phosphate were purchased from Glycoteam, Hamburg, Germany. […] Other biochemicals were purchased from Sigma.

[4] = test system: Arabidopsis plants; experiment: Leaf ascorbate in stably transformed Arabidopsis plants; type: in vivo, Arabidopsis thaliana; details: third generation, kanamycin resistant plants; FIGS. 20A-20B
Description: In the second generation, up to 12 plants from each line, selected from the kanamycin plates, were grown to a standard size of a complete rosette of leaves in the glasshouse and ascorbate measured (FIG. 19). […] The increased ascorbate ranged up to over 4 times the normal level of ascorbate in Arabidopsis leaves.
Selected plants from the second generation were taken on to the next generation. […] Again the applicants observed plants with leaf ascorbate over 4 times the control level (FIGS. 20A-20B), but again within a line with high ascorbate progeny, there were always plants with high and low ascorbate in spite of all plants coming from a high ascorbate kanamycin resistant parent. […] Regions of complete sequence identity are found, when the 319998 and Arabidopsis sequence is aligned (data not shown). This could account for the apparent silencing seen.

[5] = test system: Tobacco (Nicotiana benthamiana) leaves; experiment: Transferase activity in extracts of transiently transformed tobacco leaves; type: in vivo; details: transient expression in pGreen mixed with P19
Description: The transferase activity in tobacco leaves was measured by extracting liquid nitrogen ground leaves in approximately five volumes of TrisCI pH 8.0, 2 mM DTT and 1 mM EDTA, centrifuging, desalting the supernatant using a NAP desalting column equilibrated with the same buffer and assaying the enzyme using the coupled assay described above. Protein in the extracts was measured using the Biorad Bradford Coumassie assay (Bradford, 1976) using BSA as a standard.
(§3) Tobacco (Nicotiana benthamiana) was transiently transformed with Agrobacterium containing the kiwifruit gene for GDP-L-Galactose Guanyltransferase (EST 319998) cloned in pGreen (Hellens et al., 2000) mixed with Agrobacterium containing the gene for the silencing suppressor P19 as previously described (Hellens et al., 2005). Controls were run using Agrobacterium containing P19 in pGreen alone. Tobacco leaves were harvested 9 days after transformation and frozen in liquid nitrogen.

[6] = test system: Tobacco (Nicotiana benthamiana) leaves; experiment: Leaf ascorbate after transient transformation of tobacco leaves; type: in vivo
Description: as §3
Ascorbate was extracted as described previously in metaphosphoric acid without reducing agent (Davey et al., 2003; Rassam and Laing, 2005). […]

[7] = Transferase activity of E. coli expressed enzymes (coupled reaction and LCMS); type: biochemical; details: enzyme expressed in E. coli, His tag purified
Description: Expression of genes in E. coli. The EST 319998 from young fruit of Actinidia chinensis and At4g26850 were each cloned into pET30A (Novagene, USA), their sequence checked and expressed in E. coli. The N terminal His6 tag was used to purify the protein. An empty vector control was expressed and purified in parallel. Techniques were essentially as described earlier (Laing et al., 2004). In much of this work the His-protein was further purified on a 5 mL HiTrap Q FF column (GE Healthcare), and identical results were obtained with both preparations.
as §2, with “control. […]” for “control.”
as §1

[8] = substrate: O=P(O)(O)O[C@H]1O[C@H](CO)[C@@H](O)[C@H](O)[C@@H]1O; experiment: purified protein, by the assay type; details: other: varying concentrations of the guanyl acceptor; continuous coupled assay; FIG. 3; pH 8.0; 20.0 °C
[9] = test system: Nicotiana tabacum ‘Samsun’; experiment: Leaf ascorbate in stably transformed tobacco; type: in vivo; details: two kanamycin resistant lines; FIG. 22
Description: Tobacco was transformed with 319998 and Kanamycin resistant lines selected. These plants were transferred to soil and grown until several leaves were expanded. Ascorbate and gene expression was measured in these leaves (FIG. 22).
Nicotiana tabacum ‘Samsun’ was transformed using Agrobacterium tumefaciens strain GV101 carrying the pHex vector containing EST 319998. Methods used were as described by Guerineau et al (1990), except kanamycin was used instead of sulphonamide selective agents at the rate of 100 mg.L-1.

Row | Molecule | transferase activity, Coupled assay [1] | transferase activity, LCMS [2] | acid stability [3] | leaf ascorbate relative to the control level [4] | GDP-L-Galactose Guanyltransferase activity in leaf extract [5] | effect on leaf ascorbate ([6]; His tag in front of the transferase sequence in pGreen, FIGS. 17A-17B) | function of construct in raising leaf ascorbate ([6]; transferase cloned into pGreenII 0229 62-SK (bialaphos resistance), FIGS. 17A-17B) | effect on leaf ascorbate ([6]; transient expression with P19) | increase in leaf ascorbate compared to control leaves ([6]; transient expression with P19, listed as 319998) | effect on leaf ascorbate ([6]; transient expression with P19, listed as 319998_Ac) | increase in leaf ascorbate compared to control leaves ([6]; transient expression with P19, listed as transferase) | Leaf ascorbate levels, average ([6]; transient expression with P19, mean of three plants, three leaves per plant, harvested 9 days after transformation) | Relative amount of ascorbate ([6]; transient expression with P19, relative to controls) | GDP-L-Galactose Guanyltransferase activity of the expressed enzyme [7] | Km [8] | increase in leaf ascorbate [9]
1 | Nc1nc2c(ncn2[C@@H]2O[C@H](COP(=O)(O)OP(=O)(O)OC3O[C@@H](CO)[C@@H](O)[C@@H](O)[C@@H]3O)[C@@H](O)[C@H]2O)c(=O)[nH]1 (stereo partly drawn) [GDP-L-Galactose] | 0.017 nmoles/sec/ug protein | high BG | extremely acid labile | – | – | – | – | – | – | – | – | – | – | – | – | –
2 | B1 | – | – | – | over 4 times | measurable activity could be measured in the extract of the leaves | active in increasing leaf ascorbate | fully functional | usually was the most effective gene | three fold increase in ascorbate | increased ascorbate levels in the leaf | ~3 fold | 102.0 | 3.0 | could catalyse the conversion of GDP-L-Galactose to L-Galactose-1-P | 110 ± 30 µM | 60%
